The source of these data is US7033999B2, “Nitrosated and nitrosylated heme proteins” (Brigham and Women's Hospital, priority 1991, dated 2006).

For one series, the target named is T1, fibrinogen (Homo sapiens, UniProt P02671+P02675+P02679).
T1 construct: purchased Enzyme Research Laboratories, South Bend, Ind
T1 sequence (P02671 20-629 limits assumed): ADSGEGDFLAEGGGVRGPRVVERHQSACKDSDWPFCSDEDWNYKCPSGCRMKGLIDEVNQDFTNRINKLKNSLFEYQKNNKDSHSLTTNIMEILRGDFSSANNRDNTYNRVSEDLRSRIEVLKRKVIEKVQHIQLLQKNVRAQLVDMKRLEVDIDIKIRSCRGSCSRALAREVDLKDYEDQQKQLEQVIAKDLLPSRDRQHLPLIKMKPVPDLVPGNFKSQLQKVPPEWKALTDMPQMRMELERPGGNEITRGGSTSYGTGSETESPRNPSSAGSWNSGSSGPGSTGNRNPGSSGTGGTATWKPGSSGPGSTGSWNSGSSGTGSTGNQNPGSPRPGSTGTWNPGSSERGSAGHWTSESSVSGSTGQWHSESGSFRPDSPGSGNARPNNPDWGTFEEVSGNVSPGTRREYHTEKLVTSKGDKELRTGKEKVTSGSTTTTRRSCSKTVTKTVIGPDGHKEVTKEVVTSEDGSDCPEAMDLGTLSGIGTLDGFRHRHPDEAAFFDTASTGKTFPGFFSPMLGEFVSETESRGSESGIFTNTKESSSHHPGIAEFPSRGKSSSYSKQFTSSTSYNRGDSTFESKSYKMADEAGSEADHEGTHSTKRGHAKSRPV
T1 sequence (P02675 31-491): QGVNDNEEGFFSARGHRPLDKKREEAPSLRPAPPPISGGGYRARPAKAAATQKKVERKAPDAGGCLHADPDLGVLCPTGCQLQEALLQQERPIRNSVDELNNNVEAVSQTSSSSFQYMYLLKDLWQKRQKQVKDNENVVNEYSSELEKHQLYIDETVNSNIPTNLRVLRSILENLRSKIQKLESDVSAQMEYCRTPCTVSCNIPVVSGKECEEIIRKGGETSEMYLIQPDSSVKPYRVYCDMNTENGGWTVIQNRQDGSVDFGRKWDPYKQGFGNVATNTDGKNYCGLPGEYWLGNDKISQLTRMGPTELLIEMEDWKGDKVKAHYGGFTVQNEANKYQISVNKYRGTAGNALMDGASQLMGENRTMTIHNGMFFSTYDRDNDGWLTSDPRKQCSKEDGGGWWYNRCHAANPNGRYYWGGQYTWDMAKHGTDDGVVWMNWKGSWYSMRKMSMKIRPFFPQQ
T1 sequence (P02679 27-433 limits assumed): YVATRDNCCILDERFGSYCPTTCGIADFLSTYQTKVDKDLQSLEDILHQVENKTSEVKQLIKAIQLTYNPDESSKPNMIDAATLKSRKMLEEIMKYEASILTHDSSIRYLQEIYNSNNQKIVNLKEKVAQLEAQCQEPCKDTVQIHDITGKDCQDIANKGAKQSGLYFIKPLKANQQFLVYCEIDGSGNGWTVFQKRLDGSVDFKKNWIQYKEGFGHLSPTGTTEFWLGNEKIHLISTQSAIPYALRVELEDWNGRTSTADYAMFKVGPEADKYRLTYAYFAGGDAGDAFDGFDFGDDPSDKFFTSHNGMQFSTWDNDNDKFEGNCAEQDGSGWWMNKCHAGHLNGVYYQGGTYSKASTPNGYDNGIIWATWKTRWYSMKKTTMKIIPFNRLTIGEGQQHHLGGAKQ
Nature of the series: Binding of t-PA and S—NO-t-PA to fibrinogen-coated wells (ELISA). How it is done: The binding of t-PA and S——NO-t-PA to fibrinogen was measured using polystyrene microliter wells (flat-bottom, high binding 96-well EIA plates, cat. #3590, Costar, Cambridge, Mass.). Wells were coated with fibrinogen (0.08 ug/ul) and the remaining binding sites with 2% bovine serum albumin. Quantification of t-PA binding was determined using a Horse-Radish Peroxidase linked sheep antimurine antibody in a colorimetric assay in the presence of O-phenylenediamine, 0.014% H2O2. Color change was measured spectrophotometrically with a Dynatech MR500 Card Reader (Dynatech, Chantilly, Va.) at 490 nm.
Binding of t-PA is reversible and specific, and saturates at 1500–3000 nM; at saturation, 18 ng of t-PA are bound per well ([…] moles t-PA per mole of fibrinogen) with an estimated KDin the range of 15–650 nM. Binding of t-PA and S—NO-t-PA was quantified by ELISA over the concentration range of 150–1500 nM using a mixture containing six murine monoclonal anti-t-PA antibodies.
For orientation: ELISA stands for enzyme-linked immunosorbent assay.

Series [1] is described as follows: Amidolytic activity against chromogenic substrate S2288. The series is classed as biochemical. Particulars: S2288 hydrolysis; for Km: 25° C., TBS. How it is done: (§1) The amidolytic activities of t-PA and its S-nitrosylated derivative were measured using the relatively specific chromogenic substrate, S2288. Substrate hydrolysis was measured spectrophotometrically at 405 nm with a Gilford Response UV/Vis Spectrophotometer (CIBA-Corning, Oberlin, Ohio). Activity was measured at 25° C. in TBS using substrate concentrations varying from 0.1–2.0 mM and t-PA at a concentration of 100 nM. Kinetic parameters were determined from initial rates by double reciprocal plot analysis. The assessment of inhibition of t-PA and S—NO-t-PA enzymatic activity by PAI-1 was made at an enzyme concentration of 10 nM and a molar ratio of t-PA to active PAI-1 of 1.0. The degree of inhibition was determined relative to the initial rates in the absence of the inhibitor.

In another series the target is T2, PAI-1 (Homo sapiens, UniProt P05121).
T2 construct: gift of Dr. Douglas E. Vaughan
T2 sequence (P05121 24-402, species assumed): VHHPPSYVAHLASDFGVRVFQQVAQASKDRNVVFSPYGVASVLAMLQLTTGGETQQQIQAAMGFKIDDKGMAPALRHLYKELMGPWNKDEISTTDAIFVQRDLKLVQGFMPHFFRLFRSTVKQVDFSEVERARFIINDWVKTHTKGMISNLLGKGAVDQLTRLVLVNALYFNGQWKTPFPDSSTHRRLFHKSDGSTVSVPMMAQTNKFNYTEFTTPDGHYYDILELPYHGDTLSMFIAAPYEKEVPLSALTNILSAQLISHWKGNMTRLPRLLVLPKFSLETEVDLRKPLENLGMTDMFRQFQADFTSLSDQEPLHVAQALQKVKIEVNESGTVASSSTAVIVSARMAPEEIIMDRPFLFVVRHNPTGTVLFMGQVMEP
Description: Inhibition of t-PA and S—NO-t-PA enzymatic activity by PAI-1 (S2288). Particulars: direct chromogenic assay with S2288; n=3. It counts as biochemical. On the procedure:
as §1

A further series relates to gel-filtered platelets. Nature of the series: Platelet aggregation (nephelometric aggregometry). The series is classed as cell-based, human. Particulars: for % Normalized Extent Aggregation: Thrombin (0.024 U/ml), (150 μM) as printed, mean ±S.D.

As usually defined, the kcat is the number of substrate molecules converted per active site and unit of time at saturation. For orientation: Km means the substrate concentration at which the rate is half of its maximum.

Like-named read-outs stand apart in the source and are kept apart here.

Turning to “S—NO-t-PA: derived from the nitrosylation of tissue-type plasminogen activator (t-PA)”, the Kd in the series with fibrinogen (Scatchard analysis, read-out: estimated apparent DD for surface-bound fibrinogen) was 0.45 µM. The “binding isotherm compared with t-PA” value with fibrinogen (two-way ANOVA) is listed as “not significantly different”. Besides, in series [1], the turnover number (kcat) turned out to be 0.52 s⁻¹ and the Michaelis constant (Km) came out at 295 µM. Besides, the “inhibition of hydrolytic activity by PAI-1” value with PAI-1 is “equally effective”. Also, in the series on gel-filtered platelets (ADP (5 μM) or thrombin (0.024 U/ml)), the “concentrations at which inhibition of platelet aggregation was demonstrable” value was in the range of 15 to 150 nM. Moreover, the “% Normalized Extent Aggregation” value with gel-filtered platelets came out at 0.73 ± 0.28 %.

Regarding “t-PA: tissue-type plasminogen activator, provided by Genentech”, in the series with fibrinogen (at saturation), the “moles t-PA per mole of fibrinogen at saturation” value is on record as 0105 moles t-PA per mole of fibrinogen and the “t-PA bound per well at saturation” value is 18 ng. Also, in the series with fibrinogen (fibrinogen-coated wells), the “concentration at which binding saturates” value fell in the range of 1500 to 3000 nM. For the same substance, in the series with fibrinogen (fibrinogen-coated wells, read-out: estimated KD of binding to fibrinogen), the Kd is 0.015 to 0.65 µM. For the same substance, in series [1], the turnover number (kcat) turned out to be 0.52 s⁻¹ and the Michaelis constant (Km) was 280 µM. Also, the “inhibition of hydrolytic activity by PAI-1” value with PAI-1 is listed as “equally effective”. Further, in the series on gel-filtered platelets, the “% Normalized Extent Aggregation” value stood at 0.90 ± 0.15%.
